Results: US20120322150

Assays:
[1] = target: T1, GST-BIN2, Q39011
T1 chain: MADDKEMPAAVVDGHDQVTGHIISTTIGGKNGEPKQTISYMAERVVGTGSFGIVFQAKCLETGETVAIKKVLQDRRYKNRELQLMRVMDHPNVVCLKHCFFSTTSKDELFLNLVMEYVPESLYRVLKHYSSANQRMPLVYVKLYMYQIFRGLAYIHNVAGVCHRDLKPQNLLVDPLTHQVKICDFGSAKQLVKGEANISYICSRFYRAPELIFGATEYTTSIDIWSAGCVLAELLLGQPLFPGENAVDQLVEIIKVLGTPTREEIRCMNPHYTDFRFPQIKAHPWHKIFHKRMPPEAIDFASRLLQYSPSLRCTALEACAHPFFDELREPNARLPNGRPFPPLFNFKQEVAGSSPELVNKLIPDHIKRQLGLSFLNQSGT

[2] = target: T2, MBP-BZR1, Q8S307
T2 chain: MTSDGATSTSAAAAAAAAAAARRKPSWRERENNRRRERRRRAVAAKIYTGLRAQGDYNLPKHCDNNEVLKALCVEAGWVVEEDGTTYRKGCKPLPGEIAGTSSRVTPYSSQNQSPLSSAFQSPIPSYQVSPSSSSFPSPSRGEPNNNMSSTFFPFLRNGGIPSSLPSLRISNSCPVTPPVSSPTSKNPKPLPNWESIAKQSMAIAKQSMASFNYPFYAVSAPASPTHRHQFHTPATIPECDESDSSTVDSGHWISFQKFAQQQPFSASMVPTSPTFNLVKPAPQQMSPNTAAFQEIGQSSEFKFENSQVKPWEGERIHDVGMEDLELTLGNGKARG

[3] = target: T3, GST-BSU1-KL (N-terminal Kelch domain)
T3 chain: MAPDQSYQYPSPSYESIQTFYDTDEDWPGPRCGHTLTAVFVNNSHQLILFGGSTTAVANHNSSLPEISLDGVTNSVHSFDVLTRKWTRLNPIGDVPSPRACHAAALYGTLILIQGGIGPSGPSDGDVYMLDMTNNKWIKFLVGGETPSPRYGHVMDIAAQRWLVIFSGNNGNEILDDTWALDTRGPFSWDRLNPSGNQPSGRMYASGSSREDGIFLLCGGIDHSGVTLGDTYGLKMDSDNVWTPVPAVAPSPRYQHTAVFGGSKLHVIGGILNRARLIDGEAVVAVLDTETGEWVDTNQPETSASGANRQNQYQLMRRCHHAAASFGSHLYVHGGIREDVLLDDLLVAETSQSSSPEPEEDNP

B1: GST-BSU1-P (C-terminal phosphatase domain) (protein)
chain: DNYMLLDDYLMDEPKPLSSEPEASSFIMRSTSEIAMDRLAEAHNLPTIENAFYDSAIEGYVPLQHGAETVGNRGGLVRTASLDQSTQDLHKKVISTLLRPKTWTPPANRDFFLSYLEVKHLCDEVEKIFMNEPTLLQLKVPIKVFGDIHGQYGDLMRLFHEYGHPSVEGDITHIDYLFLGDYVDRGQHSLEIIMLLFALKIEYPKNIHLIRGNHESLAMNRIYGFLTECEERMGESYGFEAWLKINQVFDYLPLAALLEKKVLCVHGGIGRAVTIEEIENIERPAFPDTGSMVLKDILWSDPTMNDTVLGIVDNARGEGVVSFGPDIVKAFLERNGLEMILRAHECVIDGFERFADGRLITVFSATNYCGTAQNAGAILVIGRDMVIYPKLIHPHPPPISSSEEDYTDKAWMQELNIEMPPTPARGESSE
BIN2 phosphorylation of MBP-BZR1 (in vitro kinase assay with 32P-γATP) [1]: The phosphatase domain of BSU1 reduced BIN2 phosphorylation of BZR1

B2: GST-AtSK12 (protein)
chain: MASVGIEPSAAVRESTGNVTDADRLPEEMKDMKIQDDKEMEATIVNGNVTETGHIIVTTIGGRNGQPKQTISYMAERVVGHGSFGVVFQAKCLETGETVAIKKVLQDRRYKNRELQTMRLLDHPNVVSLKHCFFSTTEKDELYLNLVLEYVPETVHRVIKHYNKLNQRMPLVYVKLYTYQIFRSLSYIHRCIGVCHRDIKPQNLLVNPHTHQVKLCDFGSAKVLVKGEPNISYICSRYYRAPELIFGATEYTTAIDVWSAGCVLAELLLGQPLFPGESGVDQLVEIIKVLGTPTREEIKCMNPNYTEFKFPQIKAHPWHKIFHKRMPPEAVDLVSRLLQYSPNLRCAALDSLVHPFFDELRDPNARLPNGRFLPPLFNFKPHELKGVPVEMVAKLVPEHARKQCPWLSL
phosphorylation of MBP-BZR1 (in vitro kinase assay with 32P-γATP) [2]: AtSK12 strongly phosphorylates BZR1 in vitro

B3: GST-BIN2 (protein)
chain: MADDKEMPAAVVDGHDQVTGHIISTTIGGKNGEPKQTISYMAERVVGTGSFGIVFQAKCLETGETVAIKKVLQDRRYKNRELQLMRVMDHPNVVCLKHCFFSTTSKDELFLNLVMEYVPESLYRVLKHYSSANQRMPLVYVKLYMYQIFRGLAYIHNVAGVCHRDLKPQNLLVDPLTHQVKICDFGSAKQLVKGEANISYICSRFYRAPELIFGATEYTTSIDIWSAGCVLAELLLGQPLFPGENAVDQLVEIIKVLGTPTREEIRCMNPHYTDFRFPQIKAHPWHKIFHKRMPPEAIDFASRLLQYSPSLRCTALEACAHPFFDELREPNARLPNGRPFPPLFNFKQEVAGSSPELVNKLIPDHIKRQLGLSFLNQSGT
BIN2 phosphorylation of MBP-BZR1 (in vitro kinase assay with 32P-γATP) [3]: the Kelch repeat domain showed no effect
